Source: publication PMC4402515 (Nucleic Acids Research, 2015)

How the values were obtained:
crystal structure = molecular target: the molecule itself; test: crystal structure
SAXS = molecular target: the molecule itself; test: SAXS

Row | Protein | stoichiometry N (crystal structure) | binding result (SAXS)
1 | SFPQ-276–535 (domain or fragment) EGFKANLSLLRRPGEKTYTQRCRLFVGNLPADITEDEFKRLFAKYGEPGEVFINKGKGFGFIKLESRALAEIAKAELDDTPMRGRQLRVRFATHAAALSVRNLSPYVSNELLEEAFSQFGPIERAVVIVDDRGRSTGKGIVEFASKPAARKAFERCSEGVFLLTTTPRPVIVEPLEQLDDEDGLPEKLAQKNPMYQKERETPPRFAQHGTFEYEYSQRWKSLDEMEKQQREQVEKNMKDAKDKLESEMEDAYHEHQANLL | 2 | –
2 | SFPQ-276–598 (domain or fragment) EGFKANLSLLRRPGEKTYTQRCRLFVGNLPADITEDEFKRLFAKYGEPGEVFINKGKGFGFIKLESRALAEIAKAELDDTPMRGRQLRVRFATHAAALSVRNLSPYVSNELLEEAFSQFGPIERAVVIVDDRGRSTGKGIVEFASKPAARKAFERCSEGVFLLTTTPRPVIVEPLEQLDDEDGLPEKLAQKNPMYQKERETPPRFAQHGTFEYEYSQRWKSLDEMEKQQREQVEKNMKDAKDKLESEMEDAYHEHQANLLRQDLMRRQEELRRMEELHNQEMQKRKEMQLRQEEERRRREEEMMIRQREMEEQMRRQREESYS | 2 | –
3 | SFPQ-369–598 (domain or fragment) HAAALSVRNLSPYVSNELLEEAFSQFGPIERAVVIVDDRGRSTGKGIVEFASKPAARKAFERCSEGVFLLTTTPRPVIVEPLEQLDDEDGLPEKLAQKNPMYQKERETPPRFAQHGTFEYEYSQRWKSLDEMEKQQREQVEKNMKDAKDKLESEMEDAYHEHQANLLRQDLMRRQEELRRMEELHNQEMQKRKEMQLRQEEERRRREEEMMIRQREMEEQMRRQREESYS | 2 | –
4 | SFPQ-276–598/NONO-53–312 heterodimer (complex) chain 1: EGFKANLSLLRRPGEKTYTQRCRLFVGNLPADITEDEFKRLFAKYGEPGEVFINKGKGFGFIKLESRALAEIAKAELDDTPMRGRQLRVRFATHAAALSVRNLSPYVSNELLEEAFSQFGPIERAVVIVDDRGRSTGKGIVEFASKPAARKAFERCSEGVFLLTTTPRPVIVEPLEQLDDEDGLPEKLAQKNPMYQKERETPPRFAQHGTFEYEYSQRWKSLDEMEKQQREQVEKNMKDAKDKLESEMEDAYHEHQANLLRQDLMRRQEELRRMEELHNQEMQKRKEMQLRQEEERRRREEEMMIRQREMEEQMRRQREESYS chain 2: EGLTIDLKNFRKPGEKTFTQRSRLFVGNLPPDITEEEMRKLFEKYGKAGEVFIHKDKGFGFIRLETRTLAEIAKVELDNMPLRGKQLRVRFACHSASLTVRNLPQYVSNELLEEAFSVFGQVERAVVIVDDRGRPSGKGIVEFSGKPAARKALDRCSEGSFLLTTFPRPVTVEPMDQLDDEEGLPEKLVIKNQQFHKEREQPPRFAQPGSFEYEYAMRWKALIEMEKQQQDQVDRNIKEAREKLEMEMEAARHEHQVMLM | – | binds
